Test results taken from US9289478B2, “Formulations of tumour-associated peptides binding to human leukocyte antigen (HLA) class I or class II molecules for vaccine” (IMMATICS BIOTECHNOLOGIES GMBH, priority 2008, dated 2016).

Tests used:
Type in all cases: physicochemical
[1] = HPLC-assay for in-use stability after reconstitution with 4.2% sodium hydrogen carbonate solution (Example 3, peptides SEQ ID NO 11-23)
Protocol: For clinical trials the above described formulation is dissolved in 700 μl sodium hydrogen carbonate (4.2%). To dissolve the lyophilisate, the vial and the diluent shall be shaken vigorously for 1 minute, check whether solution is clear, otherwise continue shaking for another minute until the solution is clear. Administration of 500 μL of the solution has to occur within 1 h after reconstitution. Dissolved lyophilisate may be stored aseptically at room temperature for up to 1 hour following reconstitution.
(§1) Identity, purity and peptide content are determined by analytical RP-HPLC chromatography. Detection wavelength was 220 nm.

[2] = HPLC-assay for stability of peptides in lyophilised formulation on storage for 3 months (Example 4); details: for stability of peptides in formulation, 1 M: 1 month; for stability of peptides in formulation, 2 M: 2 months; for stability of peptides in formulation, 3 M: 3 months
Protocol: as §1

[3] = HPLC-assay for in-use stability after reconstitution with 4.2% sodium hydrogen carbonate solution (Example 2, peptides SEQ ID NO 1-10)
Protocol: Resolubilization procedure: For clinical trials the above described formulation is dissolved in 700 μl sodium hydrogen carbonate (4.2%). Remove plastic cap from one vial. Unpack and remove sodium hydrogen carbonate (4.2%) from the refrigerator at least 30 min before resolubilization to bring them up to room temperature before injection. Prepare syringe and needle for reconstitution. Use aseptic technique to take 700 μL of diluent for reconstitution of the lyophilisate. To dissolve the lyophilisate, the vial and the diluent shall be shaken vigorously for 1 minute, check whether solution is clear, otherwise continue shaking for another minute until the solution is clear. 10 to 30 minutes after GM-CSF injection, use a new syringe to administer 500 μL reconstituted formulation i.d. at the same site. Administration has to occur within 1 h after reconstitution. Dissolved lyophilisate may be stored aseptically at room temperature for up to 1 hour following reconstitution.
However, a decrease of two specific peptides, i.e. IMA-CCN-001 and IMA-RGS-001 took place (see Table 6). As these peptides contain a cysteine residue, time-depending dimerization takes place.
as §1

[4] = +mannitol/lutrol, 1 h after reconstitution
[5] = +mannitol/lutrol, 2 h after reconstitution
[6] = +mannitol/lutrol, 3 h after reconstitution
[7] = +mannitol/lutrol, 4 h after reconstitution
[8] = +mannitol/lutrol, 5 h after reconstitution
[9] = +mannitol/lutrol, 6 h after reconstitution
[10] = +mannitol/lutrol, Initial (starting value set to 100%)
[11] = no excipients, 1 h after reconstitution
[12] = no excipients, 2 h after reconstitution
[13] = no excipients, 3 h after reconstitution
[14] = no excipients, Initial (starting value set to 100%)

Sequence | in-use stability, peptide by HPLC-assay [3, 4] [%] | in-use stability, peptide by HPLC-assay [3, 5] [%] | in-use stability, peptide by HPLC-assay [3, 6] [%] | in-use stability, peptide by HPLC-assay [3, 7] [%] | in-use stability, peptide by HPLC-assay [3, 8] [%] | in-use stability, peptide by HPLC-assay [3, 9] [%] | in-use stability, peptide by HPLC-assay [3, 10] [%] | in-use stability, peptide by HPLC-assay [3, 11] [%] | in-use stability, peptide by HPLC-assay [3, 12] [%] | in-use stability, peptide by HPLC-assay [3, 13] [%] | in-use stability, peptide by HPLC-assay [3, 14] [%] | other results
AIIDGVESV (listed as Homo sapiens) [PTP-003, Protein tyrosine phosphatase, receptor-type, Z polypeptide 1 peptide] |  |  |  |  |  |  |  |  |  |  |  | in-use stability, Peptide [%] ([1]; +Mannitol/Lutrol, 2h): 100.3%; in-use stability, Peptide [%] ([1]; +Mannitol/Lutrol, 4h): 100.5%; in-use stability, Peptide [%] ([1]; +Mannitol/Lutrol, 6h): 100.1%; in-use stability, Peptide [%] ([1]; +Mannitol/Lutrol, Initial): 100.0%; in-use stability, Peptide [%] ([1]; no excipients, 2h): 100.4%; in-use stability, Peptide [%] ([1]; no excipients, 4h): 100.9%; in-use stability, Peptide [%] ([1]; no excipients, 6h): 96.1%; in-use stability, Peptide [%] ([1]; no excipients, Initial): 100.0%; stability of peptides in formulation, 1 M ([2]; +5° C. +/- 3° C.): 99.07 % of Initial; stability of peptides in formulation, 2 M ([2]; +5° C. +/- 3° C.): 97.95 % of Initial; stability of peptides in formulation, 3 M ([2]; +5° C. +/- 3° C.): 98.68 % of Initial; stability of peptides in formulation, INITIAL ([2]; +5° C. +/- 3° C.): 100.0%; stability of peptides in formulation, 1 M ([2]; +25° C. +/- 2° C.): 98.29 % of Initial; stability of peptides in formulation, 2 M ([2]; +25° C. +/- 2° C.): 97.11 % of Initial; stability of peptides in formulation, 3 M ([2]; +25° C. +/- 2° C.): 98.29 % of Initial; stability of peptides in formulation, INITIAL ([2]; +25° C. +/- 2° C.): 100.0%; stability of peptides in formulation, 1 M ([2]; -20° C. +/- 5° C.): 99.11 % of Initial; stability of peptides in formulation, 2 M ([2]; -20° C. +/- 5° C.): 97.48 % of Initial; stability of peptides in formulation, 3 M ([2]; -20° C. +/- 5° C.): 98.57 % of Initial; stability of peptides in formulation, INITIAL ([2]; -20° C. +/- 5° C.): 100.0%
ALADGVQKV (listed as Homo sapiens) [APO-001, Apolipoprotein L1 tumour-associated peptide] | 99.8 | 99.8 | 100.7 | 100.9 | 99.6 | 101.5 | 100.0 | 100.0 | 97.4 | 97.4 | 100.0 | 
ALFDGDPHL (listed as Homo sapiens) [K67-001, KIAA0367 tumour-associated peptide] | 99.8 | 100.4 | 101.6 | 101.8 | 100.6 | 102.5 | 100.0 | 100.8 | 99.2 | 97.5 | 100.0 | 
ALWAWPSEL (listed as Homo sapiens) [BCA-002, Brevican tumour-associated peptide] |  |  |  |  |  |  |  |  |  |  |  | in-use stability, Peptide [%] ([1]; +Mannitol/Lutrol, 2h): 99.8%; in-use stability, Peptide [%] ([1]; +Mannitol/Lutrol, 4h): 99.6%; in-use stability, Peptide [%] ([1]; +Mannitol/Lutrol, 6h): 98.9%; in-use stability, Peptide [%] ([1]; +Mannitol/Lutrol, Initial): 100.0%; in-use stability, Peptide [%] ([1]; no excipients, 2h): 99.9%; in-use stability, Peptide [%] ([1]; no excipients, 4h): 100.1%; in-use stability, Peptide [%] ([1]; no excipients, 6h): 95.4%; in-use stability, Peptide [%] ([1]; no excipients, Initial): 100.0%; stability of peptides in formulation, 1 M ([2]; +5° C. +/- 3° C.): 99.13 % of Initial; stability of peptides in formulation, 2 M ([2]; +5° C. +/- 3° C.): 98.04 % of Initial; stability of peptides in formulation, 3 M ([2]; +5° C. +/- 3° C.): 98.73 % of Initial; stability of peptides in formulation, INITIAL ([2]; +5° C. +/- 3° C.): 100.0%; stability of peptides in formulation, 1 M ([2]; +25° C. +/- 2° C.): 98.20 % of Initial; stability of peptides in formulation, 2 M ([2]; +25° C. +/- 2° C.): 97.05 % of Initial; stability of peptides in formulation, 3 M ([2]; +25° C. +/- 2° C.): 97.88 % of Initial; stability of peptides in formulation, INITIAL ([2]; +25° C. +/- 2° C.): 100.0%; stability of peptides in formulation, 1 M ([2]; -20° C. +/- 5° C.): 99.17 % of Initial; stability of peptides in formulation, 2 M ([2]; -20° C. +/- 5° C.): 97.61 % of Initial; stability of peptides in formulation, 3 M ([2]; -20° C. +/- 5° C.): 98.61 % of Initial; stability of peptides in formulation, INITIAL ([2]; -20° C. +/- 5° C.): 100.0%
LLGATCMFV (listed as Homo sapiens) [CCN-001, Cyclin D1 tumour-associated peptide] | 95.6 | 92.2 | 91.3 | 89.2 | 86.1 | 85.9 | 100.0 | 82.8 | 72.1 | 63.3 | 100.0 | stability after reconstitution (in words) ([3]; Example 2 formulation, 4.2% sodium hydrogen carbonate): decrease
SQDDIKGIQKLYGKRS (listed as Homo sapiens) [MMP-001, Matrix metalloproteinase 7 tumour-associated peptide] | 99.5 | 99.3 | 100.2 | 100.4 | 98.9 | 100.9 | 100.0 | 98.6 | 97.1 | 95.7 | 100.0 | 
SVFAGVVGV (listed as Homo sapiens) [GUC-001, GUCY1A3 tumour-associated peptide] | 99.7 | 99.5 | 100.6 | 100.8 | 99.7 | 101.6 | 100.0 | 100.0 | 100.0 | 98.6 | 100.0 | 
VMAGDIYSV (listed as Homo sapiens) [ADF-002, Adipophilin tumour-associated peptide] | 99.9 | 100.0 | 101.1 | 101.2 | 99.9 | 101.9 | 100.0 | 100.9 | 100.0 | 97.2 | 100.0 | 
YVDPVITSI (listed as Homo sapiens) [MET-001, c-met proto-oncogene tumour-associated peptide] | 99.8 | 99.8 | 101.0 | 101.1 | 99.8 | 101.7 | 100.0 | 100.0 | 99.2 | 96.7 | 100.0 | 
